Source: patent US12449421 (SICHUAN CANCER HOSPITAL, dated 2025)

Tests used:
[1] = target: CD79B protein as expressed in Daudi cells and diffuse large B-cell lymphoma tissue (UniProt P40259); test: immunohistochemistry on 69 diffuse large B-cell lymphoma tissue cases; share of cases stained positive
[2] = target: recombinant human CD79B extracellular domain (amino acids 29-159), huCD79B (human) (UniProt P40259); test: Biacore SPR, antibody captured on Protein A chip, huCD79B as analyte, 1:1 kinetic model
[3] = target: T1, recombinant human CD79B extracellular domain (amino acids 29-159), huCD79B (human, UniProt P40259 29-159); test: as above
T1 construct: Immunogen and SPR analyte; No tag or fusion partner is stated; also called human CD79B antigen; CD79B antigen
T1 sequence: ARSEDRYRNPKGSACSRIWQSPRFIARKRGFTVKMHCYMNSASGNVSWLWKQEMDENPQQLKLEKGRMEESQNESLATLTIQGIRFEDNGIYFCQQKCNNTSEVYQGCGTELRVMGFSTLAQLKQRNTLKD
Procedure: The ability of the antibody to bind to the antigen is characterized using Biacore™ Surface Plasmon Resonance (SPR). Specifically, a Protein A chip was used (with channel 1 as the reference channel and channel 2 as the ligand channel). The antibody was immobilized as the ligand in channel 2 of the Protein A chip at a concentration of 10 µg/ml, with an association time of 30 seconds and a flow rate of […].
In this embodiment, the analyte was flowed through both channel 1 and channel 2, with an association time of 60 seconds, a dissociation time of 90 seconds, and a flow rate of 30 µl/min. After the analyte injection was completed, the chip surface was regenerated using glycine buffer with a pH of 1.5. The ligand was immobilized before each analyte injection, and the chip surface was regenerated with the regeneration solution after the analyte injection was completed.
The affinity of the CD79B antibody for human CD79B antigen at the different concentrations mentioned above was determined using Biacore™ SPR. The corresponding analysis software was used to analyze the binding and dissociation with a 1:1 kinetic model.

Molecule | Pos. Rate (share of IHC-positive cases) [1] | Kd [2] | koff [2] | kon [2] | Kd [3] | koff [3] | kon [3]
commercially available CD79B antibody (Abcam, EPR6861) | 100% | 19.3 nM | 0.00547 s⁻¹ | 283000 M⁻¹ s⁻¹ | – | – | –
LBP2-CD79B (anti-CD79B recombinant rabbit monoclonal antibody) (antibody, V domains shown, the light chain variable region begins QVLTQTP; also called Anti-CD79B Protein Monoclonal Antibody; LBP2-CD79B monoclonal antibody) VH: QSLEESGGRLVTPGGSLTLTCTVSGIDLSTNVMRWVRQAPGKGLEWIGSMLISGNIYYASWAKGRLTISKTSSTTVDLKMTSLTAADTATYFCTRGRLWGQGTLVTVSS VL: AQVLTQTPSSVSAAVGGTVTINCQSSQSVWANNYLAWYQQKPGQPPKILIASASTLASGVSSRFKGSGSGTQFTLTISDVQCDDAATYYCLGSYDCSSADCNAFGGGTEVVVKG | – | – | – | – | 0.877 nM | 0.000775 s⁻¹ | 844000 M⁻¹ s⁻¹
